% inhibition and Alpha signal data for 33 substances are collected here from patent publication US20140112926A1.

The target of assay [1] is GST-tagged version of human FcγRIIIA (human) (UniProt P08637). The assay can be described thus: AlphaLISA vs biotin-huIgG, supernatant, round 3. (Alpha assays give light when donor and acceptor beads are brought close together.)
Assay [2] shares this target. The assay can be described thus: AlphaLISA vs biotin-huIgG, supernatant, round 1.
Assay [3] shares this target. The assay can be described thus: AlphaLISA vs biotin-huIgG, supernatant, round 2.

GST-tagged version of human FcγRIIIA (human), sequence (P08637 17-208 limits assumed): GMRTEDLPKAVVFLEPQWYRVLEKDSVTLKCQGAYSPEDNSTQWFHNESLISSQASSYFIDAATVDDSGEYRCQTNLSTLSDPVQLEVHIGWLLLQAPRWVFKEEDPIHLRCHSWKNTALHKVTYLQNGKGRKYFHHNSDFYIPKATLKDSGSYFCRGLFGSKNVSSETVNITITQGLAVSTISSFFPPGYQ

As to “scFv-Fc/Fc, M252D in dummy Fc (Fc fusion)”, the % inhibition (usually the percentage by which the read-out fell short of the control) in assay [1] is 23.3%; in assay [2] it was 20.4%; in assay [3], 27.8%. Besides, the figures for the Alpha signal in assay [1], in assay [2] and in assay [3] were 60300, 60500 and 58100, respectively.

In the case of “scFv-Fc/Fc, S239D in scFv-Fc (Fc fusion)”, the Alpha signal in assay [1] was 21400; in assay [2], 24300; in assay [3], 16900. Besides, the % inhibition in assay [3] amounted to 79%.

Turning to “scFv-Fc/Fc, A287F in scFv-Fc (from UniProt P0DOX5 218-449; P0DOX5 218-449) (Fc fusion)”, the % inhibition in assay [1] turned out to be 67.6%; in assay [2], 47.5%; in assay [3] it was 58.4%. For the same substance, the Alpha signal in assay [1] is 25500; in assay [2], 39900; in assay [3], 33500.

Consider “scFv-Fc/Fc, A339T in dummy Fc (Fc fusion)”, for which the % inhibition in assay [1] was 36.6%; in assay [2], 25.8%; in assay [3], 27.3%. The Alpha signal is 49800 in assay [1], 56400 in assay [2] and 58400 in assay [3].

Consider “scFv-Fc/Fc, E258S in dummy Fc (Fc fusion)”, for which the % inhibition in assay [1] is 21.6%; in assay [2], 20.6%; in assay [3], 28%. Moreover, the Alpha signal in assay [1] was determined as 61600; in assay [2], 60300; in assay [3] it was 57900.

For the substance “scFv-Fc/Fc, G236Y in scFv-Fc (Fc fusion)”, the figures for the % inhibition in assay [1], in assay [2] and in assay [3] were 20.9%, 15% and 23.2%, respectively. The Alpha signal in assay [1] was determined as 62200; in assay [2] it was 64600; in assay [3], 61700.

Consider “scFv-Fc/Fc, K334V + D413N in dummy Fc (Fc fusion)”, for which the % inhibition in assay [1] was 67.6%; in assay [2] it was 73.4%; in assay [3], 73.4%. Also, the figures for the Alpha signal in assay [1], in assay [2] and in assay [3] were 25400, 20200 and 21400, respectively.

Turning to “scFv-Fc/Fc, K290W in scFv-Fc (Fc fusion)”, the figures for the % inhibition in assay [1], in assay [2] and in assay [3] were 24.2%, 29.1% and 34.6%, respectively. Besides, the Alpha signal in assay [1] was determined as 59500; in assay [2] it was 53900; in assay [3] it was 52600.

“scFv-Fc/Fc, K334A in scFv-Fc (Fc fusion)”: the % inhibition in assay [1] came to 28.2%; in assay [2], 32%; in assay [3] it was 31.9%. Also, the values for the Alpha signal in assay [1], in assay [2] and in assay [3] were 56500, 51700 and 54800, respectively.

As to “scFv-Fc/Fc, F243M in dummy Fc (Fc fusion)”, the figures for the % inhibition in assay [1], in assay [2] and in assay [3] were 58.7%, 43.3% and 53.1%, respectively. Further, the Alpha signal in assay [1] stood at 32400; in assay [2], 43100; in assay [3] it was 37700.

With “scFv-Fc/Fc, K334V in dummy Fc (Fc fusion)”, the % inhibition worked out at 61.6% in assay [1], 64.4% in assay [2] and 66.5% in assay [3]. The Alpha signal in assay [1] was determined as 30200; in assay [2] it was 27100; in assay [3] it was 26900.

On to “scFv-Fc/Fc, K290Y in scFv-Fc (Fc fusion)”, for which the % inhibition in assay [1] came out at 87%; in assay [2] it was 87.9%; in assay [3], 90.2%. The Alpha signal in assay [1] worked out at 10200; in assay [2] it was 9170; in assay [3], 7890.

As for “scFv-Fc/Fc, R255S in dummy Fc (Fc fusion)”, the % inhibition in assay [1] stood at 22.3%; in assay [2], 21.9%; in assay [3] it was 38%. Further, the Alpha signal stood at 61000 in assay [1], 59300 in assay [2] and 49800 in assay [3].

Take “scFv-Fc/Fc, K288I in scFv-Fc (from UniProt P0DOX5 218-449; P0DOX5 218-449) (Fc fusion)”: the Alpha signal in assay [1] came out at 57300; in assay [2], 56400; in assay [3], 57500. Besides, in assay [2], the % inhibition came out at 25.8%.

For “scFv-Fc/Fc, K248Y in dummy Fc (Fc fusion)”, the % inhibition was 40.2% in assay [1], 31.5% in assay [2] and 36.5% in assay [3]. Further, the Alpha signal in assay [1] was determined as 47000; in assay [2] it was 52100; in assay [3], 51000.

Regarding “scFv-Fc/Fc, A330V in dummy Fc (Fc fusion)”, the % inhibition came out at 25.6% in assay [1], 25.8% in assay [2] and 32.7% in assay [3]. In addition, the Alpha signal turned out to be 58400 in assay [1], 56400 in assay [2] and 54100 in assay [3].

With “scFv-Fc/Fc, S298A in scFv-Fc (Fc fusion)”, the % inhibition in assay [1] turned out to be 65%; in assay [2] it was 76.5%; in assay [3], 68.5%. Besides, the figures for the Alpha signal in assay [1], in assay [2] and in assay [3] were 27500, 17900 and 25300, respectively.

“scFv-Fc/Fc, I253V in dummy Fc (Fc fusion)”: the figures for the % inhibition in assay [1], in assay [2] and in assay [3] were 25.7%, 23% and 23.5%, respectively. The Alpha signal in assay [1] is 58400; in assay [2] it was 58500; in assay [3], 61500.

As to “scFv-Fc/Fc, S239E + K340N in dummy Fc (Fc fusion)”, the values for the % inhibition in assay [1], in assay [2] and in assay [3] were 66.7%, 84.9% and 85.4%, respectively. The Alpha signal in assay [1] is 26100; in assay [2], 11500; in assay [3] it was 11800.

Take “scFv-Fc/Fc, F243V in scFv-Fc (Fc fusion)”: the % inhibition in assay [1] stood at 48.6%; in assay [2], 45.1%; in assay [3], 47.7%. The results for the Alpha signal in assay [1], in assay [2] and in assay [3] were 40400, 41700 and 42100, respectively.

With “scFv-Fc/Fc, T256Q in scFv-Fc (from UniProt P0DOX5 218-449; P0DOX5 218-449) (Fc fusion)”, the % inhibition is 73.5% in assay [1], 65.1% in assay [2] and 76.3% in assay [3]. Besides, the Alpha signal in assay [1] was 20800; in assay [2], 26500; in assay [3], 19100.

For the substance “scFv-Fc/Fc, E258V in scFv-Fc (from UniProt P0DOX5 218-449; P0DOX5 218-449) (Fc fusion)”, the results for the % inhibition in assay [1], in assay [2] and in assay [3] were 71.5%, 69.3% and 75.8%, respectively. The Alpha signal in assay [1] was found to be 22400; in assay [2] it was 23300; in assay [3] it was 19500.

On to “scFv-Fc/Fc, K290Q in scFv-Fc (Fc fusion)”, for which the % inhibition came to 48.8% in assay [1], 50.8% in assay [2] and 54.4% in assay [3]. Also, the Alpha signal in assay [1] was 40300; in assay [2], 37400; in assay [3], 36700.

Take “scFv-Fc/Fc, S298C in scFv-Fc (Fc fusion)”: the % inhibition is 82.9% in assay [1], 84% in assay [2] and 87.1% in assay [3]. For the same substance, the Alpha signal in assay [1] was 13400; in assay [2], 12200; in assay [3], 10400.

With “scFv-Fc/Fc, K290G in dummy Fc (Fc fusion)”, the % inhibition in assay [1] is 51%; in assay [2] it was 73%; in assay [3] it was 75%. In addition, the Alpha signal in assay [2] was determined as 20600; in assay [3], 20100.

As for “scFv-Fc/Fc, K290F in dummy Fc (Fc fusion)”, the results for the % inhibition in assay [1], in assay [2] and in assay [3] were 23.5%, 23.1% and 31.1%, respectively. Moreover, the results for the Alpha signal in assay [1], in assay [2] and in assay [3] were 60100, 58500 and 55400, respectively.

For “scFv-Fc/Fc, Y296W in scFv-Fc (Fc fusion)”, the % inhibition stood at 68.5% in assay [1], 66.7% in assay [2] and 72.9% in assay [3]. Moreover, the figures for the Alpha signal in assay [1], in assay [2] and in assay [3] were 24800, 25300 and 21800, respectively.

Consider “scFv-Fc/Fc, S239N in scFv-Fc (Fc fusion)”, for which the results for the % inhibition in assay [1], in assay [2] and in assay [3] were 68.8%, 58% and 67.5%, respectively. The Alpha signal came out at 24500 in assay [1], 31900 in assay [2] and 26100 in assay [3].

Turning to “scFv-Fc/Fc, F243L in scFv-Fc (Fc fusion)”, the % inhibition in assay [1] came out at 29.7%; in assay [2] it was 39.4%; in assay [3], 28.6%. Besides, the Alpha signal in assay [1] was determined as 55200; in assay [3] it was 57400.

For “scFv-Fc/Fc, K290G in scFv-Fc (from UniProt P0DOX5 218-449; P0DOX5 218-449) (Fc fusion)”, the Alpha signal worked out at 55700 in assay [1], 52400 in assay [2] and 53800 in assay [3]. The % inhibition in assay [2] was determined as 31.1%; in assay [3], 33.1%.

With “scFv-Fc/Fc, K246E in dummy Fc (Fc fusion)”, the values for the % inhibition in assay [1], in assay [2] and in assay [3] were 32.1%, 22.4% and 22.2%, respectively. Further, the results for the Alpha signal in assay [1], in assay [2] and in assay [3] were 53300, 58900 and 62600, respectively.

Take “scFv-Fc/Fc, H268E in scFv-Fc (from UniProt P0DOX5 218-449; P0DOX5 218-449) (Fc fusion)”: the Alpha signal in assay [1] was 57100; in assay [2], 54800; in assay [3] it was 56600.

In assay [1], “scFv-Fc/Fc, T307G in scFv-Fc (Fc fusion)” gave a % inhibition of 51%. The substance also displayed an Alpha signal in assay [2] of 32500.
